Results taken from US20060246084A1 (MICHIGAN STATE UNIVERSITY, published 2006).
Where two headings read alike, the source gives them in different places.

B1: IFN-γ bound to its receptor (IFN-γR-IFN-γ) on human cells (other)
chain 1: QDPYVKEAENLKKYFNAGHSDVADNGTLFLGILKNWKEESDRKIMQSQIVSFYFKLFKNFKDDQSIQKSVETIKEDMNVKFFNSNKKKRDDFEKLTNYSVTDLNVQRKAIHELIQVMAELSPAAKTGKRKRSQMLFRGRRASQ
chain 2: EMGTADLGPSSVPTPTNVTIESYNMNPIVYWEYQIMPQVPVFTVEVKNYGVKNSEWIDACINISHHYCNISDHVGDPSNSLWVRVKARVGQKESAYAKSEEFAVCRDGKIGPPKLDIRKEEKQIMIDIFHPSVFVNGDEQEVDYDPETTCYIRVYNVYVRMNGSEIQYKILTQKEDDCDEIQCQLAIPVSSLNSQYCVSAEGVLHVWGVTTEKSKEVCITIFNSSIKGSLWIPVVAALLLFLVLSLVFICFYIKKINPLKEKSIILPKSLISVVRSATLETKPESKYVSLITSYQPFSLEKEVVCEEPLSPATVPGMHTEDNPGKVEHTEELSSITEVVTTEENIPDVVPGSHLTPIERESSSPLSSNQSEPGSIALNSYHSRNCSESDHSRNGFDTDSSCLESHSSLSDSEFPPNNKGEIKTEGQELITVIKAPTSFGYDKPHVLVDLLVDDSGKESLIGYRPTEDSKEFS
B2: recombinant human IFN-γ (ligand)
chain: B1 chain 1

Legend:
[1] = target: T1, LcrV68-326, N-terminally truncated LcrV (Yersinia pestis, UniProt P0C7U7 68-326)
[2] = target: T1, LcrV68-326, N-terminally truncated LcrV; assay: 125I-LcrV68-326 plus unlabelled IFN-γ on U937 cells
[3] = target: T1, LcrV68-326, N-terminally truncated LcrV; assay: 125I-LcrV68-326 plus unlabelled IFN-γ on human monocytes
[4] = target: T1, LcrV68-326, N-terminally truncated LcrV; assay: 125I-LcrV68-326 plus unlabelled IFN-γ on human thymocytes
[5] = target: T1, LcrV68-326, N-terminally truncated LcrV; assay: 125I-LcrV68-326 plus unlabelled IFN-γ on human neutrophils
[6] = target: T2, IFN-γ receptor on human cells (no IFN-γ added) (human, UniProt P15260 18-489); assay: 125I radioligand binding to U937 cells
T2 construct: whole, on cells; also called receptors of U937 cells and human neutrophils, monocytes, and thymocytes
T2 sequence: B1 chain 2

[7] = target: T2, IFN-γ receptor on human cells (no IFN-γ …); assay: 125I radioligand binding to human monocytes
[8] = target: T2, IFN-γ receptor on human cells (no IFN-γ …); assay: 125I radioligand binding to human thymocytes
[9] = target: T2, IFN-γ receptor on human cells (no IFN-γ …); assay: 125I radioligand binding to human neutrophils

Row | Binder | Kd [1] [nM] | Kd [2] [nM] | Kd [3] [nM] | Kd [4] [nM] | Kd [5] [nM] | Kd [6] [nM] | Kd [7] [nM] | Kd [8] [nM] | Kd [9] [nM]
1 | B1 | 0.016 | 0.8 | 7.2 | 2.4 | 0.92 |  |  |  | 
2 | B2 |  |  |  |  |  | 0.68 | 0.84 | 0.26 | 0.93
